# Results reported in the nanobody polyreactivity screen of Harvey et al. (2022).
# Experiment: yeast display, Sf9 membrane polyspecificity reagent, FACS + sequencing; frameworks hold sequencing errors
# Method in brief: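 Galactose induction of a Saccharomyces cerevisiae BJ5465 synthetic nanobody display library ran 36–48 hours. The cells were then stained for 1 hour at 4 °C with 10% biotinylated, detergent-solubilized Sf9 membrane reagent, pulled down on streptavidin microbeads and FACS-sorted into low and high (top ~1%) gates on expression and reagent-binding fluorescence. Labels for polyreactivity follow the gate of origin.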
row,Sequence,polyreactivity (PSR sort gate)
1,QVQLVESGGGLVQAGGSLRLSCAASGSIFNLYTMGWYRQAPGKEREFVSAISSSGTSTYYADSVKGRFTISRDNAKNTVYLQMNSLKPEDTAVYYCAADWTGGFYTWYVIPYDYWGQGTQVTVSS,low polyreactivity
2,QVQLVESGGGLVQAGGSLRLSCAASGSIFNLYTMGWYRQAPGKERELVAVITGGGSTYYADSVKGRFTISRDNAKNTVYLQMNSLKPDDTAVYYCAAKGPYYKSSRTGDYWGQGTQVTVSS,low polyreactivity
3,QVQLVESGGGLVQAGGSLRLSCAASGSIFNPYAMGWYRQAPGKERELVAVIRSRGDRTYYADSVKGRFTISRDYAKNTVYLQMNSLKPEDTAVYYCAVRAQESLWKQYYYWGQGTQVTVSS,high polyreactivity
4,QVQLVESGGGLVQAGGSLRLSCAASGSIFNRNAMGWYRQAPGKERELVAAINYSGGSTYYADSVKGRFTISRDNAKNTVYLQMNSLKPEDTAVYYCAARPVALRKYDYWGQGTQVTVSS,low polyreactivity
5,QVQLVESGGGLVQAGGSLRLSCAASGSIFNRNAMGWYRQARGKERELVAAITGSGGRTYYADSVKGRFTISRDNAKNTVYLQMNSLKPEDTAVYYCAARWGYYRYYIFDYWGQGTQVTVSS,high polyreactivity
6,QVQLVESGGGLVQAGGSLRLSCAASGSIFNRYAMGWYRKAPGKERELVAAMSSTGSTYYADSVKGRFTISRDNAKNTVYLQMNSLKPEDTAVYYCNADATPDWLRVDTYEYWGQGTQVTVSS,low polyreactivity
7,QVQLVESGGGLVQAGGSLRLSCAASGSIFNRYAMGWYRQAPGKERELVAAIRSGDNTNYADSVKGRFTISRDNAKNTVYLQMNSLKPEDTAVYYCNARYGGYRARYTYNYWGQGTQVTVSS,high polyreactivity
8,QVQLVESGGGLVQAGGSLRLSCAASGSIFNRYAMGWYRQAPGKERELVASISWRTASTYYADSVKGRFTISRDNAKNTVYLQMNSLKPEDTAVYYCAAKILGRPGYYYWGQGTQVTVSS,high polyreactivity
9,QVQLVESGGGLVQAGGSLRLSCAASGSIFNRYAMGWYRQAPGKERQFVAAITRRGGNTYYADSVKGRFTISRDNAKNTVYLQMNSLKREDTAVYYCAAPFYYPAGLLYYENNYWGQGTQVTVSS,high polyreactivity
10,QVQLVESGGGLVQAGGSLRLSCAASGSIFNRYTMGSYRQAPGKEREFVAAISSSGTSTYYADSVKGRFTISRDNAMNTVYLQMNSLKPEDTAVYYCAADYYRTPKSGSSGLDYWGQGTQVTVSS,low polyreactivity
11,QVQLVESGGGLVQAGGSLRLSCAASGSIFNSNAMGWYRPAPGKERELVAAITGSGGRTYYADSVKGRFTISRDNAKNTVYLKMNSLKPEDTAVYYCNVTRGTIGGYSYWGQGTQVTVSS,high polyreactivity
12,QVQLVESGGGLVQAGGSLRLSCAASGSIFNSNAMGWYRQAPGKERELVAVISWSDGSTRYADSVKGRFTISRDNVKNTVYLQMNSLKPEDTAVYYCAADYLDGIYEYDYWGQGTQVTVSS,low polyreactivity
13,QVQLVESGGGLVQAGGSLRLSCAASGSIFNSYAMGWYRQAPGKETELVAAITRSDGSTYYADSVKGRFTISRDKAKNTVYLQMNSLKPEDTAVYYCAKGVGGYIYSEYDYWGQGTQVTVSS,low polyreactivity
14,QVQLVESGGGLVQAGGSLRLSCAASGSIFNVNAMGWYRQAPGKERELVAAISSGGDTYYADSVKGRFTISRDNAKNTVYLQMNSLKPEDTAVYYCAKQSYTLYTLLYDYWGQGTQVTVSS,low polyreactivity
15,QVQLVESGGGLVQAGGSLRLSCAASGSIFNWYAMGWYRQAPGKERELVAAISSSGSTNYADSVKGRFTISRDNAKNTVYLQMNSLKPEDTAVYYCNADEYYLNNYNYGYWGQGTQVTVSS,low polyreactivity
16,QVQLVESGGGLVQAGGSLRLSCAASGSIFNYNAMGWYRHAPGKERELFAAITYHGGSTYYADSVKGRFTISRDNAKYTVYLQMNSLKPEDTAVYYCNALRGYRPGWFDYWGQGTQVTVSS,high polyreactivity
17,QVQLVESGGGLVQAGGSLRLSCAASGSIFNYNAMGWYRQAPGKERELVAAISSGGSTNYADSVKGRFTISRDNAKNTVYLQMNSLKPEDTAVYYCAKRWWVYYPRYDYWGQGTQVTVSS,high polyreactivity
18,QVQLVESGGGLVQAGGSLRLSCAASGSIFNYYAMGWYRQAPGKERELVAAISTSGGRTYYADSVKGRFTISRDNAKKTVYLQMNSLKPEDTAVYYCNAVSRTRAGAGDYWGQGTQVTVSS,high polyreactivity
19,QVQLVESGGGLVQAGGSLRLSCAASGSIFNYYAMGWYRQAPGKERELVAAITSADGRTFYADSVKGRFTISRDNANNTVYLQMNSLKPDDTAVYYCAAERTSRYSTYEYWGQGTQVTVSS,low polyreactivity
20,QVQLVESGGGLVQAGGSLRLSCAASGSIFNYYDMGWYRQAPGKEREFVARITIGGSSTNYADSVKGRFTISRDNAKNTVYLQMNSLKPEDTAVYYCAASQYGIFFSQMDYWGQGTQVTVSS,low polyreactivity

row,Sequence,polyreactivity (PSR sort gate)
1,QVQLVESGGGLVQAGGSLRLSCAASGSIFNYYTMGWYRQAPGKERELVAAITWSGGRTYYADSVKGRFTISRDNAKNTVYLQMNSLKPEDTAVYYCNAVAYKPGGGDDFESWGQGTQLTVSS,high polyreactivity
2,QVQLVESGGGLVQAGGSLRLSCAASGSIFPAIALGWYRQAPGKERELVAGISERGSSTYYADSVKGRFTISRDNAKNTVYLQMNSLKPEDTAVYYCAADDVGRYWSSTHNWARGDYWGQGTQVTVSS,low polyreactivity
3,QVQLVESGGGLVQAGGSLRLSCAASGSIFPANVMGWYRQAPGKERELVAVISSSGGRTFYADSVKGRFTISRDNAKNTVYLQMNSLKPEDTAVYYCAATIYDYNRGRKYYYWGQGNQVTVSS,high polyreactivity
4,QVQLVESGGGLVQAGGSLRLSCAASGSIFPAYAMGWYIQDHGKERELLAAITRGGRTNYADSVKGRFTISRDNAKNTVYLQMNSLKPEDTAVYYCAARGYYAYRFDYWGQGTQVTVSS,high polyreactivity
5,QVQLVESGGGLVQAGGSLRLSCAASGSIFPAYAMGWYRQAPGKERELVAAITGSGGSTYYADSVKGRFTISRDNAKNTVYLQMNSLKPEDTAVYYCAATIRQYRRYDYWGQGTQVTVSS,low polyreactivity
6,QVQLVESGGGLVQAGGSLRLSCAASGSIFPAYTMGRYRQAPGKEREMVAAIPYSGARSTYYADSVKGRFTISRDNAKNTVYLQMYSLKPEDTAVYYCNARSRARYFYDMDYWGQGTLVTVSS,low polyreactivity
7,QVQLVESGGGLVQAGGSLRLSCAASGSIFPDNAMGWYRQAPGKERELVATIRSTGGTNYADSVKGRFTISRDNEKNTVYLQMNSLKPEDTAVYYCATDLWSTTGSEYDYWGQGTQVTVSS,low polyreactivity
8,QVQLVESGGGLVQAGGSLRLSCAASGSIFPDNVMGWYRQAPGKEREFVAAISWTDGSTRYADSVKGRFTISRDNAKNTVYLQMNSLKPEDTAVYYCNVGTRASYQEGDYWGQGTQVTVSS,low polyreactivity
9,QVQLVESGGGLVQAGGSLRLSCAASGSIFPFYAMGWYIQAPGKERELVAAISDRGGSTYYADSVKGRFTISRDNAKNTVYLQMNSLKPEDTAVYYCAADKYSQWSSHTRVRYDYWGQGTQVTVSS,low polyreactivity
10,QVQLVESGGGLVQAGGSLRLSCAASGSIFPFYAMGWYRQAPGKERELVAAISDRGGSTYYADSVKGRFTISRDNAKNTVYLQMNSLKPEDTAVYYGAKGGEVSQGYTDEYDYWGQGTQVTVSS,low polyreactivity
11,QVQLVESGGGLVQAGGSLRLSCAASGSIFPFYAMGWYRQAPGKERELVAGISGSAGRTYYADSVKGRFTISRDNAKNTVYLQMNSLKPEDTAVYYCAAVYYSSLYDYWGQGTQVTVSS,high polyreactivity
12,QVQLVESGGGLVQAGGSLRLSCAASGSIFPGNAMGWYRQAPGKERELVAAISSSGGRTYYADSVKGRFTISRDNAKNTVYLQMNSLKPEDTAVYYCNRLQVYSYYPYYPWYNYWGQGTQVTVSS,high polyreactivity
13,QVQLVESGGGLVQAGGSLRLSCAASGSIFPGNGMGWYRQAPGKERELVAAITWSVATTYYADSVKGRFTISRDNAKNTVYLQMNSLKPEDTAVYYCAADDAYPYDWGQGTQVTVSS,low polyreactivity
14,QVQLVESGGGLVQAGGSLRLSCAASGSIFPGYAMGWYRQAPGKERELVATISTRGSTYYADSVKGRFTISRDNAKNTVYLQMNSLKPEDTAVYYCNTDFPTAQYDYWGQGTQVTVSS,low polyreactivity
15,QVQLVESGGGLVQAGGSLRLSCAASGSIFPGYAMGWYRQAPGKERELVATITWSGGSTYYADSVKGRFTISRDNAKNTVYLQMNSLKPVDTAVYYCNADSNWYYQWNYYGLYDYWGQGTQVTVSS,low polyreactivity
16,QVQLVESGGGLVQAGGSLRLSCAASGSIFPHNAMGWYRQAPGKERALVASITSRGGITYYADSVKGRFTISRDNAKNTVYLQMNSLKPEDTAVYYCNGVLYHYSPTDSWITYDYWGQGTQVTVSS,low polyreactivity
17,QVQLVESGGGLVQAGGSLRLSCAASGSIFPHNAMGWYRQAPGTERELVASITSRGGITYYADSVKGRFTISRDNAKNTVYLQMNSLKPEDTAVYYCAADLYIYPYDYWGQGTQVTVSS,low polyreactivity
18,QVQLVESGGGLVQAGGSLRLSCAASGSIFPINARGWYRQAPGKERELVAAISRRTGSTYYPDSVKGRFTISRDNAKNTVYVQMNSLKPEDTAVYYCAASYGTTRQRWLDYWGQGTQVTVSS,high polyreactivity
19,QVQLVESGGGLVQAGGSLRLSCAASGSIFPIYAMGWYRQAPGKERELVAALNRSGGSTYYADSVKGRFTISRDNAKNTVYLQMNSLKPEDTAVYYCNADYGYHNQLFWGYYGWSSDHWGQGTQVTVSS,low polyreactivity
20,QVQLVESGGGLVQAGGSLRLSCAASGSIFPIYAMGWYRQAPRKERELVAAISGSGARTYYADSVKGRFTISRDNAKNTVYLQMNSLKPEDTAVYYCNAKYGYDSEARIVKPVRYDYWGQGTQVTVSS,high polyreactivity
